The record followed here is patent US20210181204A1 (SYNGENTA PARTICIPATIONS, published 2021).

Assay [1] deals with T1, Cry1Ab insecticidal protein (Bacillus thuringiensis, UniProt P0A370 1-615). Nature of the assay: Bio-Layer Interferometry, target 15.6 nM to 1 uM. (In BLI a coated tip is dipped into the sample, and binding shifts an interference pattern.)
In assay [2] the target is eCry3.1Ab hybrid insecticidal protein. Nature of the assay: Bio-Layer Interferometry, target 15.6 nM to 1 uM.
In assay [3] the target is T2, mCry3A insecticidal protein (Bacillus thuringiensis subsp. …, UniProt P0A379 48-644, limits assumed).
T2 construct: also called modified Cry3A
T2 sequence: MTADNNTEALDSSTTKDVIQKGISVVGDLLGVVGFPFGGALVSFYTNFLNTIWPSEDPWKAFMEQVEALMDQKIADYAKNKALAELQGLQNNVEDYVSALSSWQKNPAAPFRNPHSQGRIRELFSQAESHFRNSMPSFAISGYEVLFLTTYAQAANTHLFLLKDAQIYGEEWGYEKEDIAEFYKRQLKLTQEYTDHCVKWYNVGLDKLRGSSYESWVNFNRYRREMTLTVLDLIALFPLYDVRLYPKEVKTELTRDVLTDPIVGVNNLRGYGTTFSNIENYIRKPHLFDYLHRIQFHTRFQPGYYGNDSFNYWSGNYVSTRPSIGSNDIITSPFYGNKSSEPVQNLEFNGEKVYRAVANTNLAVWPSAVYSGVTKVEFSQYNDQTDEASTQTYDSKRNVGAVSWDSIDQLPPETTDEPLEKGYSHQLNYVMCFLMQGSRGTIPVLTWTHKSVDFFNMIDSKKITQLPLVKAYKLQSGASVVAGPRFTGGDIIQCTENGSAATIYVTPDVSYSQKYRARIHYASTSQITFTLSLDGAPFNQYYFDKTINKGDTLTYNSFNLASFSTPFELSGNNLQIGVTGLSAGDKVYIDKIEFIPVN
Nature of the assay: Bio-Layer Interferometry, target 15.6 nM to 1 uM.

Assay [4] addresses T1, Cry1Ab insecticidal protein. Kind of assay: direct ELISA on coated Cry1Ab, RGS-His HRP. A general note: ELISA stands for enzyme-linked immunosorbent assay.
The target is the same in assay [5]. Kind of assay: direct ELISA: Cry1Ab coated at 1 ug/ml, RGS-His HRP detection.
The target of assay [6] is Cry1Ai insecticidal protein. Nature of the assay: direct ELISA: protein coated at 500 ng/ml, 10 nM tagged synNAPS with SA-AP.
The target of assay [7] is T1, Cry1Ab insecticidal protein. Described as above.
Assay [8] deals with eCry3.1Ab hybrid insecticidal protein. Nature of the assay: direct ELISA, coated protein, SA-AP, 405 nm.
Assay [9] concerns the target Cry1Aa insecticidal protein (Bacillus thuringiensis subsp. aizawai, UniProt P0A367 12-1176). Nature of the assay: direct ELISA, coated protein, SA-AP, 405 nm.
The target of assay [10] is Cry1Ab.1Ca insecticidal protein. Nature of the assay: direct ELISA, coated protein, SA-AP, 405 nm.
The target in assay [11] is T2, mCry3A insecticidal protein. Kind of assay: direct ELISA, coated protein, SA-AP, 405 nm.
For assay [12] the target is unchanged. Kind of assay: direct ELISA: protein coated at 500 ng/ml, 10 nM tagged synNAPS with SA-AP.
The target in assay [13] is Cry1Ai insecticidal protein. Nature of the assay: direct ELISA, coated protein, SA-AP, 405 nm.
The target in assay [14] is T1, Cry1Ab insecticidal protein. Kind of assay: direct ELISA, coated protein, SA-AP, 405 nm.
In assay [15] the target is T2, mCry3A insecticidal protein. Nature of the assay: direct ELISA: mCry3A coated at 1 ug/ml, RGS-His HRP detection.
The target is the same in assay [16]. Kind of assay: direct ELISA on coated mCry3A.

B1: synNAPS-3 ligand (designed binder)
chain: MVKVKFRWGGEEKEVDTSKIWYVARVGKWVLFGYDDNGKRGAGRVREKDAPKELLDMLARAEREKK
On to B1, for which the binding result in assay [1] was “binds”.

B2: synNAPS-11 ligand (designed binder)
chain: MVKVKFGLGGEEKEVDTSKIRRVLRLGKLVSFTYDDNGKIGLGDVHEKDAPKELLDMLARAEREKK
Regarding B2, the binding result in assay [2] is on record as “binds”.

B3: synNAPS-8 ligand (designed binder)
chain: MVKVKFHGRGEEKEVDTSKIFWVYRDGKRVLFRYDDNGKRGFGSVPEKDAPKELLDMLARAEREKK
Regarding B3, the binding result in [3] was “binds”.

B4: synNAPS-1 ligand (designed binder)
chain: MVKVKFGPWGEEKEVDTSKIVDVWRWGKYVDFFYDDNGKVGIGSVTEKDAPKELLDMLARAEREKK
For B4, the binding result in assay [1] is on record as “binds”.

B5: synNAPS-14 ligand (designed binder)
chain: MVKVKFKYKGEEKEVDTSKIIFVYRFGKFVMFIYDDNGKTGHGDVREKDAPKELLDMLARAEREKK
Consider B5, for which the binding result in assay [2] is on record as “binds”.

B6: synNAPS2 variant R44A (designed binder)
chain: RGSHHHHHHGSMVKVKFKYKGEEKEVDTSKIVWIGRFGKSVYFRYDDNGKTGAGAVYEKDAPKELLDMLARAEREKK
For the molecule B6, the binding result in [4] is on record as “no binding”. In addition, the “Binding (OD 450 nm)” value in [5] is 0 OD 450 nm.

B7: synNAPS2 variant S29A (designed binder)
chain: RGSHHHHHHGSMVKVKFKYKGEEKEVDTSKIVWIGRFGKAVYFRYDDNGKTGAGRVYEKDAPKELLDMLARAEREKK
On to B7, for which the binding result in assay [4] is recorded as “no binding”. In addition, the “Binding (OD 450 nm)” value in [5] came out at 0 OD 450 nm.

B8: synNAPS2 variant W22A (designed binder)
chain: RGSHHHHHHGSMVKVKFKYKGEEKEVDTSKIVAIGRFGKSVYFRYDDNGKTGAGRVYEKDAPKELLDMLARAEREKK
In the case of B8, in assay [4], the binding result was “no binding”. For the same molecule, in assay [5], the “Binding (OD 450 nm)” value amounted to 0 OD 450 nm.

B9: synNAPS2 variant Y31A (designed binder)
chain: RGSHHHHHHGSMVKVKFKYKGEEKEVDTSKIVWIGRFGKSVAFRYDDNGKTGAGRVYEKDAPKELLDMLARAEREKK
With B9, the binding result in [4] is listed as “no binding”. Further, the “Binding (OD 450 nm)” value in assay [5] was determined as 0 OD 450 nm.

B10: synNAPS-3tag ligand (designed binder)
chain: MRGSHHHHHHGSVKVKFRWGGEEKEVDTSKIWYVARVGKWVLFGYDDNGKRGAGRVREKDAPKELLDMLARAEREKKLGSGLNDIFEAQKIEWH
modifications: in vivo biotinylation (E. coli BirA strain) on the C-terminal avidin-tag
notes: also called tagged synNAPS 3
As for B10, the “Binding to Insecticidal Protein (read at 405 nm)” value (from here on “Binding to Insecticidal Protein”) in [6] amounted to 1.5 absorbance 405 nm; in [7], 0.75 absorbance 405 nm. Also, the binding result in assay [8], in assay [9], in assay [10] and in [11] was “no binding (tested: 10 nM)” throughout.

B11: synNAPS-6tag ligand (designed binder)
chain: MRGSHHHHHHGSVKVKFMRWGEEKEVDTSKITYVTRWGKTVIFYYDDNGKKGHGSVLEKDAPKELLDMLARAEREKKLGSGLNDIFEAQKIEWH
modifications: in vivo biotinylation (E. coli BirA strain) on the C-terminal avidin-tag
notes: also called tagged synNAPS 6
As for B11, in assay [12], the “Binding to Insecticidal Protein” value stood at 1.1 absorbance 405 nm. The binding result in [8], in assay [9], in assay [10], in assay [13] and in [14] was “no binding (tested: 10 nM)” in each case.

B12: synNAPS-6 ligand (designed binder)
chain: MVKVKFMRWGEEKEVDTSKITYVTRWGKTVIFYYDDNGKKGHGSVLEKDAPKELLDMLARAEREKK
On to B12, for which, in assay [3], the binding result is recorded as “binds”.

B13: synNAPS-5 ligand (designed binder)
chain: MVKVKFVLKGEEKEVDTSKITYVARYGKFVQFDYDDNGKFGAGVVLEKDAPKELLDMLARAEREKK
Consider B13, for which the binding result in [1] is recorded as “binds”.

B14: synNAPS-7tag ligand (designed binder)
chain: MRGSHHHHHHGSVKVKFKVHGKEKEVDTSKILAVARWGKAVIFAYDDNGKHGRGQVSEKDAPKELLDMLARAEREKKLGSGLNDIFEAQKIEWH
modifications: in vivo biotinylation (E. coli BirA strain) on the C-terminal avidin-tag
notes: also called tagged synNAPS 7
As for B14, in assay [12], the “Binding to Insecticidal Protein” value turned out to be 0.7 absorbance 405 nm. For the same molecule, the binding result in assay [8], in assay [9], in assay [10], in assay [13] and in assay [14] was “no binding (tested: 10 nM)” each time.

B15: synNAPS-7 ligand (designed binder)
chain: MVKVKFKVHGKEKEVDTSKILAVARWGKAVIFAYDDNGKHGRGQVSEKDAPKELLDMLARAEREKK
Regarding B15, the binding result in assay [3] is reported as “binds”.

B16: synNAPS-4 ligand (designed binder)
chain: MVKVKFKYKGEEKEVDTSKISYVQRAGKSVYFNYDDNGKTGGGRVFEKDAPKELLDMLARAEREKK
Regarding B16, the binding result in assay [1] was “binds”.

B17: synNAPS9 variant Q8A (designed binder)
chain: RGSHHHHHHGSMVKVKFAAGGEEKEVDTSKIYRVPRHGKIVFFMYDDNGKGGFGHVTEKDAPKELLDMLARAEREKK
In the case of B17, in [15], the “Binding (OD 450 nm)” value is 2.8 OD 450 nm. The “binding affinity as percent of SEQ ID NO:17” value in [16] was around 112%.

B18: synNAPS9 variant T46A (designed binder)
chain: RGSHHHHHHGSMVKVKFAQGGEEKEVDTSKIYRVPRHGKIVFFMYDDNGKGGFGHVAEKDAPKELLDMLARAEREKK
With B18, the “Binding (OD 450 nm)” value in assay [15] came to 2.8 OD 450 nm. In addition, the “binding affinity as percent of SEQ ID NO:17” value in assay [16] was around 112%.

B19: synNAPS9 variant M33A (designed binder)
chain: RGSHHHHHHGSMVKVKFAQGGEEKEVDTSKIYRVPRHGKIVFFAYDDNGKGGFGHVTEKDAPKELLDMLARAEREKK
As for B19, in [15], the “Binding (OD 450 nm)” value was 2.8 OD 450 nm. In assay [16], the “binding affinity as percent of SEQ ID NO:17” value is around 112%.

B20: synNAPS-8tag ligand (designed binder)
chain: MRGSHHHHHHGSVKVKFHGRGEEKEVDTSKIFWVYRDGKRVLFRYDDNGKRGFGSVPEKDAPKELLDMLARAEREKKLGSGLNDIFEAQKIEWH
modifications: chain 1: biotinylated in vivo on the C-terminal avidin-tag (E. coli BirA strain). The patent does not name the residue; it is presumably the tag's Lys, pos 90, written K.
notes: also called tagged synNAPS 8
On to B20, for which the “Binding to Insecticidal Protein” value in assay [12] was 1.6 absorbance 405 nm. In addition, the binding result in assay [8], in [9], in assay [10], in assay [13] and in assay [14] was “no binding (tested: 10 nM)” in each case.

B21: synNAPS-12 ligand (designed binder)
chain: MVKVKFKLTGEEKEVDTSKIQWVARFGKFVDFLYDDNGKTGWGWVYEKDAPKELLDMLARAEREKK
For the molecule B21, the binding result in assay [2] was “binds”.

B22: synNAPS-10 ligand (designed binder)
chain: MVKVKFLMKGEEKEVDTSKIKWVNRHGKYVAFYYDDNGKTGGGEVREKDAPKELLDMLARAEREKK
For B22, the binding result in assay [2] was “binds”.
